Drawing on publication PMC7611088, this text covers stoichiometry N for one substance.

The target in this assay is human β3 homopentameric GABAAR construct (K279T, M3-M4 loop replaced by SQPARAA) (human) (UniProt P28472). The assay is described as follows: cryo-EM structure.

Regarding “human β3 homopentameric GABAAR construct (K279T, M3-M4 loop replaced by SQPARAA) (from UniProt P28472 26-473) (receptor)”, the stoichiometry N – broadly, a count of units in the complex or per binding partner – was 5.
